Results published in publication PMC6280533, “Construction and characterization of a synthetic Baculovirus-inducible 39K promoter”.

T1: IE-1 (IE1-His) (Bombyx mori nucleopolyhedrovirus (BmNPV), UniProt P33245 1-587)
T1 sequence: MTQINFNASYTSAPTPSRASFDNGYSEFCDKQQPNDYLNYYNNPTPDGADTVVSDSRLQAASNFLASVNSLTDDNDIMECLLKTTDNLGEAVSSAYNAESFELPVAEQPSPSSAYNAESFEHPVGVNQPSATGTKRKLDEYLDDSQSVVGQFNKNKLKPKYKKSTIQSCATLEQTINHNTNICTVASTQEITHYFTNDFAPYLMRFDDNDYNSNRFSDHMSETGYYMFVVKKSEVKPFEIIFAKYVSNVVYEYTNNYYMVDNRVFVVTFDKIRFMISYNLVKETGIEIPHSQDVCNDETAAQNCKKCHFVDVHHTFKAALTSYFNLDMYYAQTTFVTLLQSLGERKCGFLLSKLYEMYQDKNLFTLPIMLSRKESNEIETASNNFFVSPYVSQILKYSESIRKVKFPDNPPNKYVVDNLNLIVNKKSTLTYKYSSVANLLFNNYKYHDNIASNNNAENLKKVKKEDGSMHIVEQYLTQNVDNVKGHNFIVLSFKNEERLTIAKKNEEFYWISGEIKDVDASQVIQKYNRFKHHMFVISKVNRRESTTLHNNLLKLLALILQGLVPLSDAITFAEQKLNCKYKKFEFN

B1: 39K probe 3 (-310 to -355) (dsDNA)
DNA 1: AATATTTTAATTATATGAACGACAAACAATTGATCACGTACGATTA
DNA 2: TAATCGTACGTGATCAATTGTTTGTCGTTCATATAATTAAAATATT
B2: 39K probe 1 (-486 to -532) (dsDNA)
DNA 1: AGTATTTGATATACGTAGGCGTCGTGCGCGGCAACTTGATTGACGTG
DNA 2: CACGTCAATCAAGTTGCCGCGCACGACGCCTACGTATATCAAATACT
B3: 39K probe 2 (-386 to -431) (dsDNA)
DNA 1: GACTATCGTATAATATTAAAACCGCGACGCTTCAATTGCGAAATAA
DNA 2: TTATTTCGCAATTGAAGCGTCGCGGTTTTAATATTATACGATAGTC
B4: 39K probe 4 (+2 to +47) (dsDNA)
DNA 1: AGTAATTACCGACAAATGTTCTAAGCGTAAGGTGTGTCTTCATCAC
DNA 2: GTGATGAAGACACACCTTACGCTTAGAACATTTGTCGGTAATTACT

How the values were obtained:
IE-1 (IE1-His) [1] = target: T1, IE-1 (IE1-His); assay: EMSA; probe 1, 2, 6 pmol/L; IE-1 0.8 ug/L (so in the source); settings: protein: recombinant; tags: His (pCold-I); chain copies: 2; label: 5' biotin; blunt
IE-1 (IE1-His) [2] = target: T1, IE-1 (IE1-His); assay: EMSA; settings: protein: recombinant; tags: His (pCold-I); chain copies: 2; label: 5' biotin; blunt

Binder | binding result (IE-1 (IE1-His) [1]) | binding result (IE-1 (IE1-His) [2])
B1 | binds | –
B2 | – | no binding
B3 | – | no binding
B4 | – | no binding
